The source of these data is EP1214598B1.

No end group written: not given here.

This test concerns the target PHF43 (tau fragment generated by GluC digestion of K19, 43 residues) (human). As to the kind of experiment: disulfide dimerization via Cys322, after reverse phase HPLC.

B1: PHF43 (tau fragment generated by GluC digestion of K19, 43 residues) (peptide)
peptide: NLKHQPGGGKVQIVYKPVDLSKVTSKCGSLGNIHHKPGGGQVE
modifications: also: dimer via Cys322-Cys322 disulfide (without DTT)
On to B1, for which the dimer fraction amounted to 100%.
